Data on five compounds can be found in publication PMC3515450, “Mechanistic and Structural Understanding of Uncompetitive Inhibitors of Caspase-6” (PLoS ONE, 2012).

* marks the point of attachment. AMC = Cc1cc(=O)oc2cc(N*)ccc12; R110 = Rhodamine110 dye

What is called IC50 is the concentration needed to halve the response being measured.

Data set [1] has as its target T1, caspase-6 (Homo sapiens, UniProt P55212).
T1 construct: Residues 24-179 and 194-293 from caspase-6 cDNA (Origene) were cloned into pET-24b and pET-23b vectors; 6x histidine tag (C); made in house; host or cells: E. coli BL21 (DE3) pLysS
T1 sequence (P55212 24-179): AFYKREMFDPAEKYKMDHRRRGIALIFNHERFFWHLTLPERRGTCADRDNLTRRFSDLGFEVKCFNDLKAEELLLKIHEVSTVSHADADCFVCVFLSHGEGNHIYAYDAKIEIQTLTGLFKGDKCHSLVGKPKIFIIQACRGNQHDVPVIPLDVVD
T1 sequence (P55212 194-293): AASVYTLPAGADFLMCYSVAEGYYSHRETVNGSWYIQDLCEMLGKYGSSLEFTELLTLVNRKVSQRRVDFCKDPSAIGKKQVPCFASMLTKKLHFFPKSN
The data set can be described thus: Caspase-6 enzymatic assay with fluorogenic tetrapeptide substrates. It counts as biochemical. How it is done:
The in vitro enzymatic caspase assays utilize synthetic tetrapeptide substrates labeled with the fluorophores Rhodamine110 (R110) or 7-amino-4-methylcoumarin (AMC) at the P1 aspartic acid (Asp) residue. All assays were performed in 384-well plates in 12 µL reaction volume consisting of enzyme, substrate and indicated concentration of inhibitor or DMSO in assay buffer (50 mM HEPES [pH 7.0], 25 mM MgSO4, 0.5 mM EGTA, 5 mM Glutathione (GSH), 0.01% Triton X-100 containing 0.1% Bovine Gamma Globulin (BGG)). All inhibitors were serially diluted in 100% DMSO prior to dilution in assay buffer and transfer to assay plate. DMSO was diluted into assay buffer similarly for blank wells (no enzyme or compound) and final DMSO concentration was 1%. The concentration of caspase-6 used in enzymatic reactions typically varied between 1–10 nM depending on substrate used. Unless otherwise indicated, substrate concentration was within 3-fold of the determined Kmapparent (5 µM (Ac-VEID)2R110 [Kmapp = 8 µM]; 5 µM (Ac-DEVD)2R110 [Kmapp = 8 µM]; 25 µM (Ac-IETD)2R110 [Kmapp = 70 µM]; 25 µM (Ac-WEHD)2R110 [Kmapp = 70 µM]; 10µM Ac-VEID-AMC [Kmapp = 16µM]; 5 µM Ac-VEID-R110 [Kmapp = 8 µM]). The concentration of substrate utilized in selectivity assays for each caspase isoform was also held as close to Kmapparent as reasonably achievable (Table S1). Caspases-3 and -7 were expressed and purified at Genentech as the catalytic domain consisting of large p20 and small p10 subunits without prodomain. For all caspase enzymatic assays, the reaction plate was incubated at room temperature for 40 minutes and then read on Envision (Perkin Elmer) fluorescent plate reader at excitation/emission wavelengths of 485/535 nm (R110) or 350/450 nm (AMC). […]
The endpoint fluorescent emission (RFU) in each well was plotted as a function of inhibitor concentration and the 50% inhibition (IC50) values were determined using a nonlinear least squares fit of the data to a four parameter equation using Prism 5.0 software (GraphPad Software, San Diego, CA). […] Ki values for Compound 3 were calculated using this equation: Ki = IC50/(Km/[S] +1). Concentration-response curves for each inhibitor were normalized to zero and 100% based on no enzyme or DMSO control, respectively. For steady-state kinetic analysis, initial reaction velocity (RFU/minute) was plotted against substrate concentration at each inhibitor concentration and the data was fit to a hyperbolic Michaelis-Menten model using Prism 5.0 software. Km (µM) and Vmax (RFU/minute) were calculated by using this equation: v = Vmax • [S]/Km+[S] where v = initial reaction velocity at indicated substrate concentration (S). Vmax values were normalized to zero and 100% based on no enzyme or DMSO control, respectively.
Expression and purification of caspase-6 for enzymatic assays: Human caspase-6 was expressed as the mature enzyme using a split construct. Residues 24-179 and 194-293 from caspase-6 cDNA (Origene) were cloned into pET-24b and pET-23b vectors (Novagen) respectively; the small subunit contained a C-terminal 6x histidine tag. Vectors were cotransfected into the E.coli strain BL21 (DE3) pLysS (Stratagene). Cells were grown from a single colony in 6L of 2xYT supplemented with ampicillin and kanamycin at 37 °C to an OD of ~ 0.5 and were subsequently cooled to 16 °C before overnight induction with 0.2 mM IPTG. Cells were harvested by centrifugation, resuspended in 100 mM NaCl, 100 mM Tris, pH 8.0, and lysed.

In data set [2] the target is T2, caspase-3 (Homo sapiens, UniProt P42574).
T2 construct: as the catalytic domain consisting of large p20 and small p10 subunits without prodomain; made in house
T2 sequence (P42574 29-175 limits assumed): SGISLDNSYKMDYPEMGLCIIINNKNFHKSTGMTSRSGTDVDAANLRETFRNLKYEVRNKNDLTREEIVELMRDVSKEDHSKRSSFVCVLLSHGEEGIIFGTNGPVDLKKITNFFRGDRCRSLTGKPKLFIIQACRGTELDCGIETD
T2 sequence (P42574 176-277 limits assumed): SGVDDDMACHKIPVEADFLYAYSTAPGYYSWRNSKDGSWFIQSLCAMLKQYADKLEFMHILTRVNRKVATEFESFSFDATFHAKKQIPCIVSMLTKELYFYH
The data set can be described thus: Caspase-3 enzymatic assay with divalent R110 substrates. Type of data set: biochemical. As to conditions: caspase-3. Here is the method: The in vitro enzymatic caspase assays utilize synthetic tetrapeptide substrates labeled with the fluorophores Rhodamine110 (R110) or 7-amino-4-methylcoumarin (AMC) at the P1 aspartic acid (Asp) residue. All assays were performed in 384-well plates in 12 µL reaction volume consisting of enzyme, substrate and indicated concentration of inhibitor or DMSO in assay buffer (50 mM HEPES [pH 7.0], 25 mM MgSO4, 0.5 mM EGTA, 5 mM Glutathione (GSH), 0.01% Triton X-100 containing 0.1% Bovine Gamma Globulin (BGG)). All inhibitors were serially diluted in 100% DMSO prior to dilution in assay buffer and transfer to assay plate. DMSO was diluted into assay buffer similarly for blank wells (no enzyme or compound) and final DMSO concentration was 1%. The concentration of caspase-6 used in enzymatic reactions typically varied between 1–10 nM depending on substrate used. Unless otherwise indicated, substrate concentration was within 3-fold of the determined Kmapparent (5 µM (Ac-VEID)2R110 [Kmapp = 8 µM]; 5 µM (Ac-DEVD)2R110 [Kmapp = 8 µM]; 25 µM (Ac-IETD)2R110 [Kmapp = 70 µM]; 25 µM (Ac-WEHD)2R110 [Kmapp = 70 µM]; 10µM Ac-VEID-AMC [Kmapp = 16µM]; 5 µM Ac-VEID-R110 [Kmapp = 8 µM]). The concentration of substrate utilized in selectivity assays for each caspase isoform was also held as close to Kmapparent as reasonably achievable (Table S1). Caspases-3 and -7 were expressed and purified at Genentech as the catalytic domain consisting of large p20 and small p10 subunits without prodomain. For all caspase enzymatic assays, the reaction plate was incubated at room temperature for 40 minutes and then read on Envision (Perkin Elmer) fluorescent plate reader at excitation/emission wavelengths of 485/535 nm (R110) or 350/450 nm (AMC).
The endpoint fluorescent emission (RFU) in each well was plotted as a function of inhibitor concentration and the 50% inhibition (IC50) values were determined using a nonlinear least squares fit of the data to a four parameter equation using Prism 5.0 software (GraphPad Software, San Diego, CA). […]

The subject of data set [3] is T3, (Ac-VEID)2R110.
T3 sequence: VEID
The data set can be described thus: SPR; as a2, but substrates (10 µM) mixed with compound 3 (1 µM) and injected together over the captured caspase-6 surfaces; apparent.

Take `COc1ccc(-c2cc(C(=O)NC(Cc3ccccc3)C(=O)O)c(C)o2)cc1OC` (centres unmarked) [Compound 2]: in data set [1] (caspase-6, (VEID)2R110), the “binding efficiency index (BEI; pIC50/molecular weight)” value was determined as 11.5. Further, the IC50 in data set [1] (caspase-6 cleavage of (VEID)2R110 substrate, read-out: IC50) came out at 20 µM. “(VEID)2R110: Rhodamine110 dye conjugated to two valine-glutamate-isoleucine-aspartate tetrapeptides; fluorogenic substrate (Ac-VEID-R110; also: two VEID chains on one R110 dye) [reference compound]”: the Kmapp of substrate in data set [2] and in data set [1] (caspase-6) was 8 µM each time. The compound also came in with a Kcat of substrate in data set [1] (caspase-6, kcat = Vmax/[E]) of 0.11 s⁻¹. For “Ac-VEID-AMC: monovalent VEID substrate in which R110 is replaced by amino-methyl coumarin (Ac-VEID-{AMC}; SMILES CC[C@H](C)[C@H](NC(=O)[C@H](CCC(=O)O)NC(=O)[C@@H](NC(C)=O)C(C)C)C(=O)N[C@@H](CC(=O)O)C(=O)Nc1ccc2c(C)cc(=O)oc2c1) [reference compound]”, the Kmapp of substrate in data set [1] (caspase-6) came out at 16 µM. As for “apo-caspase-6 with C-terminal avi-tag, biotinylated”, the “apparent KD with compound 3 (dissociation of both compound and substrate)” value in data set [3] is “an apparent KD of ∼200 nM”. On the same count and under the same terms, next, “mature C163A-caspase-6 with C-terminal avi-tag”: “an apparent KD of ∼200 nM”.
